In patent publication US20250361268A1, “NOVEL ANTI-INFLAMMATORY PEPTIDE AND USE THEREOF” (NOVACELL TECHNOLOGY INC., priority 2022, published 2025):

B1: peptide of SEQ ID NO 65 (peptide)
peptide: PMRYKPM
HELM: PEPTIDE1{[CCCCCCCC(=O)[*:2]].P.M.R.Y.K.P.[dM].[am]}$$$$V2.0
SMILES: CCCCCCCC(=O)N1CCC[C@H]1C(=O)N[C@@H](CCSC)C(=O)N[C@@H](CCCNC(=N)N)C(=O)N[C@@H](Cc1ccc(O)cc1)C(=O)N[C@@H](CCCCN)C(=O)N1CCC[C@H]1C(=O)N[C@H](CCSC)C(N)=O
B2: peptide of SEQ ID NO 70 (peptide)
peptide: MKYKPM
HELM: PEPTIDE1{M.K.Y.K.P.[dM].[am]}$$$$V2.0; N-terminus assumed
SMILES: CSCC[C@H](N)C(=O)N[C@@H](CCCCN)C(=O)N[C@@H](Cc1ccc(O)cc1)C(=O)N[C@@H](CCCCN)C(=O)N1CCC[C@H]1C(=O)N[C@H](CCSC)C(N)=O
B3: peptide of SEQ ID NO 74 (peptide)
peptide: RWRYKPM
HELM: PEPTIDE1{R.W.R.Y.K.P.[dM].[am]}$$$$V2.0; N-terminus assumed
SMILES: CSCC[C@@H](NC(=O)[C@@H]1CCCN1C(=O)[C@H](CCCCN)NC(=O)[C@H](Cc1ccc(O)cc1)NC(=O)[C@H](CCCNC(=N)N)NC(=O)[C@H](Cc1c[nH]c2ccccc12)NC(=O)[C@@H](N)CCCNC(=N)N)C(N)=O
B4: peptide of SEQ ID NO 63 (peptide)
peptide: PMRYKPM
HELM: PEPTIDE1{[ac].P.M.R.Y.K.P.[dM].[am]}$$$$V2.0
SMILES: CSCC[C@H](NC(=O)[C@@H]1CCCN1C(C)=O)C(=O)N[C@@H](CCCNC(=N)N)C(=O)N[C@@H](Cc1ccc(O)cc1)C(=O)N[C@@H](CCCCN)C(=O)N1CCC[C@H]1C(=O)N[C@H](CCSC)C(N)=O
B5: peptide of SEQ ID NO 67 (peptide)
peptide: KMKYKPM
HELM: PEPTIDE1{[ac].K.M.K.Y.K.P.[dM].[am]}$$$$V2.0
SMILES: CSCC[C@H](NC(=O)[C@H](CCCCN)NC(C)=O)C(=O)N[C@@H](CCCCN)C(=O)N[C@@H](Cc1ccc(O)cc1)C(=O)N[C@@H](CCCCN)C(=O)N1CCC[C@H]1C(=O)N[C@H](CCSC)C(N)=O
B6: peptide of SEQ ID NO 78 (peptide)
peptide: RWRYWYM
HELM: PEPTIDE1{[ac].R.W.R.Y.W.Y.[dM].[am]}$$$$V2.0
SMILES: CSCC[C@@H](NC(=O)[C@H](Cc1ccc(O)cc1)NC(=O)[C@H](Cc1c[nH]c2ccccc12)NC(=O)[C@H](Cc1ccc(O)cc1)NC(=O)[C@H](CCCNC(=N)N)NC(=O)[C@H](Cc1c[nH]c2ccccc12)NC(=O)[C@H](CCCNC(=N)N)NC(C)=O)C(N)=O
B7: peptide of SEQ ID NO 82 (peptide)
peptide: RMRYWYM
HELM: PEPTIDE1{[ac].R.M.R.Y.W.Y.[dM].[am]}$$$$V2.0
SMILES: CSCC[C@H](NC(=O)[C@H](CCCNC(=N)N)NC(C)=O)C(=O)N[C@@H](CCCNC(=N)N)C(=O)N[C@@H](Cc1ccc(O)cc1)C(=O)N[C@@H](Cc1c[nH]c2ccccc12)C(=O)N[C@@H](Cc1ccc(O)cc1)C(=O)N[C@H](CCSC)C(N)=O
B8: peptide of SEQ ID NO 83 (peptide)
peptide: RMRYWYM
HELM: PEPTIDE1{[CCCC(=O)[*:2]].R.M.R.Y.W.Y.[dM].[am]}$$$$V2.0
SMILES: CCCC(=O)N[C@@H](CCCNC(=N)N)C(=O)N[C@@H](CCSC)C(=O)N[C@@H](CCCNC(=N)N)C(=O)N[C@@H](Cc1ccc(O)cc1)C(=O)N[C@@H](Cc1c[nH]c2ccccc12)C(=O)N[C@@H](Cc1ccc(O)cc1)C(=O)N[C@H](CCSC)C(N)=O
B9: peptide of SEQ ID NO 81 (peptide)
peptide: RMRYWYM
HELM: PEPTIDE1{R.M.R.Y.W.Y.[dM].[am]}$$$$V2.0; N-terminus assumed
SMILES: CSCC[C@H](NC(=O)[C@@H](N)CCCNC(=N)N)C(=O)N[C@@H](CCCNC(=N)N)C(=O)N[C@@H](Cc1ccc(O)cc1)C(=O)N[C@@H](Cc1c[nH]c2ccccc12)C(=O)N[C@@H](Cc1ccc(O)cc1)C(=O)N[C@H](CCSC)C(N)=O
B10: peptide of SEQ ID NO 85 (peptide)
peptide: MRYWYM
HELM: PEPTIDE1{M.R.Y.W.Y.[dM].[am]}$$$$V2.0; N-terminus assumed
SMILES: CSCC[C@H](N)C(=O)N[C@@H](CCCNC(=N)N)C(=O)N[C@@H](Cc1ccc(O)cc1)C(=O)N[C@@H](Cc1c[nH]c2ccccc12)C(=O)N[C@@H](Cc1ccc(O)cc1)C(=O)N[C@H](CCSC)C(N)=O
B11: peptide of SEQ ID NO 87 (peptide)
peptide: MRYWYM
HELM: PEPTIDE1{[CCCC(=O)[*:2]].M.R.Y.W.Y.[dM].[am]}$$$$V2.0
SMILES: CCCC(=O)N[C@@H](CCSC)C(=O)N[C@@H](CCCNC(=N)N)C(=O)N[C@@H](Cc1ccc(O)cc1)C(=O)N[C@@H](Cc1c[nH]c2ccccc12)C(=O)N[C@@H](Cc1ccc(O)cc1)C(=O)N[C@H](CCSC)C(N)=O
B12: peptide of SEQ ID NO 80 (peptide)
peptide: KWKYWYM
HELM: PEPTIDE1{[ac].K.W.K.Y.W.Y.[dM].[am]}$$$$V2.0
SMILES: CSCC[C@@H](NC(=O)[C@H](Cc1ccc(O)cc1)NC(=O)[C@H](Cc1c[nH]c2ccccc12)NC(=O)[C@H](Cc1ccc(O)cc1)NC(=O)[C@H](CCCCN)NC(=O)[C@H](Cc1c[nH]c2ccccc12)NC(=O)[C@H](CCCCN)NC(C)=O)C(N)=O
B13: peptide of SEQ ID NO 86 (peptide)
peptide: MRYWYM
HELM: PEPTIDE1{[ac].M.R.Y.W.Y.[dM].[am]}$$$$V2.0
SMILES: CSCC[C@H](NC(C)=O)C(=O)N[C@@H](CCCNC(=N)N)C(=O)N[C@@H](Cc1ccc(O)cc1)C(=O)N[C@@H](Cc1c[nH]c2ccccc12)C(=O)N[C@@H](Cc1ccc(O)cc1)C(=O)N[C@H](CCSC)C(N)=O
B14: peptide of SEQ ID NO 62 (peptide)
peptide: PMRYKPM
HELM: PEPTIDE1{P.M.R.Y.K.P.[dM].[am]}$$$$V2.0; N-terminus assumed
SMILES: CSCC[C@H](NC(=O)[C@@H]1CCCN1)C(=O)N[C@@H](CCCNC(=N)N)C(=O)N[C@@H](Cc1ccc(O)cc1)C(=O)N[C@@H](CCCCN)C(=O)N1CCC[C@H]1C(=O)N[C@H](CCSC)C(N)=O
B15: peptide of SEQ ID NO 68 (peptide)
peptide: KMKYKPM
HELM: PEPTIDE1{[CCCC(=O)[*:2]].K.M.K.Y.K.P.[dM].[am]}$$$$V2.0
SMILES: CCCC(=O)N[C@@H](CCCCN)C(=O)N[C@@H](CCSC)C(=O)N[C@@H](CCCCN)C(=O)N[C@@H](Cc1ccc(O)cc1)C(=O)N[C@@H](CCCCN)C(=O)N1CCC[C@H]1C(=O)N[C@H](CCSC)C(N)=O
B16: peptide of SEQ ID NO 7 (peptide)
peptide: RMRYKVM
HELM: PEPTIDE1{[CCCC(=O)[*:2]].R.M.R.Y.K.V.[dM].[am]}$$$$V2.0
SMILES: CCCC(=O)N[C@@H](CCCNC(=N)N)C(=O)N[C@@H](CCSC)C(=O)N[C@@H](CCCNC(=N)N)C(=O)N[C@@H](Cc1ccc(O)cc1)C(=O)N[C@@H](CCCCN)C(=O)N[C@H](C(=O)N[C@H](CCSC)C(N)=O)C(C)C
B17: peptide of SEQ ID NO 64 (peptide)
peptide: PMRYKPM
HELM: PEPTIDE1{[CCCC(=O)[*:2]].P.M.R.Y.K.P.[dM].[am]}$$$$V2.0
SMILES: CCCC(=O)N1CCC[C@H]1C(=O)N[C@@H](CCSC)C(=O)N[C@@H](CCCNC(=N)N)C(=O)N[C@@H](Cc1ccc(O)cc1)C(=O)N[C@@H](CCCCN)C(=O)N1CCC[C@H]1C(=O)N[C@H](CCSC)C(N)=O
B18: peptide of SEQ ID NO 89 (peptide)
peptide: MKYWYM
HELM: PEPTIDE1{M.K.Y.W.Y.[dM].[am]}$$$$V2.0; N-terminus assumed
SMILES: CSCC[C@H](N)C(=O)N[C@@H](CCCCN)C(=O)N[C@@H](Cc1ccc(O)cc1)C(=O)N[C@@H](Cc1c[nH]c2ccccc12)C(=O)N[C@@H](Cc1ccc(O)cc1)C(=O)N[C@H](CCSC)C(N)=O

What was measured:
[1] = molecular target: T1, formyl peptide receptor 2 (FPR2) (UniProt P25090 1-351, limits assumed); assay: cell-based or functional assay
T1 sequence (looked up): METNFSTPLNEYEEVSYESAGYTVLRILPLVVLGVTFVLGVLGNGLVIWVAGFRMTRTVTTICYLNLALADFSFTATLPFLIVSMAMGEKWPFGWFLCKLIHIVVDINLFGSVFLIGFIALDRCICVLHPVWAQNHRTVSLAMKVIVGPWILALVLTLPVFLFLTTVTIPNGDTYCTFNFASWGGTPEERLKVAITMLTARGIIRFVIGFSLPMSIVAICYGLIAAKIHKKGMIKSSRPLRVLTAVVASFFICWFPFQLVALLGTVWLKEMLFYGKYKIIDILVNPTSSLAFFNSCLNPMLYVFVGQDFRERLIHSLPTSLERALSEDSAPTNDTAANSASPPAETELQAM

FPR1 = molecular target: T2, FPR1 (UniProt P21462 1-350, limits assumed); assay: cell-based or functional assay
T2 sequence (looked up): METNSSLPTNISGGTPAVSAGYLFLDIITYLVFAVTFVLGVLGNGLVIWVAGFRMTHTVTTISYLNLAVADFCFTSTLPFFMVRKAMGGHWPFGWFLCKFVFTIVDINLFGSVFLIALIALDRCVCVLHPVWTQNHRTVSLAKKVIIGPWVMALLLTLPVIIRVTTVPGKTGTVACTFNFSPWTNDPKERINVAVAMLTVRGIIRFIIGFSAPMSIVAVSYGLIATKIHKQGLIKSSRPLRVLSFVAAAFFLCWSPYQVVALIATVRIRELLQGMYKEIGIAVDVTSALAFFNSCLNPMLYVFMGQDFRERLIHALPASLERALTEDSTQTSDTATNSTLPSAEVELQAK

Row | Binder | EC50 for [Ca2+] [1] [µM] | EC50 for [Ca2+] (FPR1) [µM]
1 | B1 | < 0.01 | > 10
2 | B2 | < 0.01 | > 10
3 | B3 | < 0.01 | > 10
4 | B4 | < 0.01 | > 10
5 | B5 | < 0.01 | > 10
6 | B6 | < 0.01 | > 10
7 | B7 | < 0.01 | > 10
8 | B8 | < 0.01 | > 10
9 | B9 | < 0.01 | > 10
10 | B10 | < 0.01 | > 10
11 | B11 | < 0.01 | > 10
12 | B12 | < 0.01 | > 10
13 | B13 | < 0.01 | > 10
14 | B14 | < 0.01 | > 10
15 | B15 | < 0.01 | > 10
16 | B16 | < 0.01 | > 10
17 | B17 | < 0.01 | > 10
18 | B18 | < 0.01 | > 10
